# T1: phosphorylated Mt-MviN KHD 681-963 (M. tuberculosis, UniProt P9WJK2 681-963, phosphothreonine at 947)
# T1 sequence: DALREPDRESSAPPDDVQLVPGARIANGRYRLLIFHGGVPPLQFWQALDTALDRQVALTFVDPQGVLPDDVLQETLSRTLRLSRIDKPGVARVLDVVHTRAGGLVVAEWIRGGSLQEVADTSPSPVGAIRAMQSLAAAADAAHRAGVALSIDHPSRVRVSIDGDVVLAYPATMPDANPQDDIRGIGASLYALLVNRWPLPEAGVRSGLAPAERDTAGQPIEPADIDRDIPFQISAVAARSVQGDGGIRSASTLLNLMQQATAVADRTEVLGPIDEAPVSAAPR
# B1: FhaA FHA domain (residues 390 to 525) (domain or fragment)
# chain: PQGGGYAEPAGRDYDYGQSGAPDYGQPAPGGYSGYGQGGYGSAGTSVTLQLDDGSGRTYQLREGSNIIGRGQDAQFRLPDTGVSRRHLEIRWDGQVALLADLNSTNGTTVNNAPVQEWQLADGDVIRLGHSEIIVR
# Molecular target: T1, phosphorylated Mt-MviN KHD 681-963
# Assay: ITC
binder,measurement,value
B1,Kd,58 ± 2 nM
